# Data: publication PMC5365074 (Nature structural & molecular biology, 2017)
# T1: FLAG-IFNAR2 (human, UniProt P48551 27-515)
# T1 sequence: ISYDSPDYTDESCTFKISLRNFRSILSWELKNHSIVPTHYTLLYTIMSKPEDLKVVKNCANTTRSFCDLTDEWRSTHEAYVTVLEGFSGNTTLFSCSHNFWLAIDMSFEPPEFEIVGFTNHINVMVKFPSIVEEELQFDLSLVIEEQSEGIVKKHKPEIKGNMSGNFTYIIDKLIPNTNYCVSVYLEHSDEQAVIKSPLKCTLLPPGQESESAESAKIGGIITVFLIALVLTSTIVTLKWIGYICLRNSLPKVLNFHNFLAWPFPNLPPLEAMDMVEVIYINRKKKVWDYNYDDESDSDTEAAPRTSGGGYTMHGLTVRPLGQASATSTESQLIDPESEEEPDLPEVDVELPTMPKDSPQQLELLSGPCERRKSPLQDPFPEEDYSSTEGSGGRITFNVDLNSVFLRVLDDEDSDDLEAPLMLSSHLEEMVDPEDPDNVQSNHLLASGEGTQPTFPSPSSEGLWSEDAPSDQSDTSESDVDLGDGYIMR
# B1: USP18 (no tag named), expressed in U6A cells (enzyme)
# chain: MSKAFGLLRQICQSILAESSQSPADLEEKKEEDSNMKREQPRERPRAWDYPHGLVGLHNIGQTCCLNSLIQVFVMNVDFTRILKRITVPRGADEQRRSVPFQMLLLLEKMQDSRQKAVRPLELAYCLQKCNVPLFVQHDAAQLYLKLWNLIKDQITDVHLVERLQALYTIRVKDSLICVDCAMESSRNSSMLTLPLSLFDVDSKPLKTLEDALHCFFQPRELSSKSKCFCENCGKKTRGKQVLKLTHLPQTLTIHLMRFSIRNSQTRKICHSLYFPQSLDFSQILPMKRESCDAEEQSGGQYELFAVIAHVGMADSGHYCVYIRNAVDGKWFCFNDSNICLVSWEDIQCTYGNPNYHWQETAYLLVYMKMEC
# Biological target: T1, FLAG-IFNAR2
# Experiment: co-IP
binder,measurement,value
B1,fold enhancement of the co-precipitation upon expression of STAT2,≤ 10 fold
